Experimental data from article PMC10952681.

Target: Rhizobium radiobacter MDC 8606 N-carbamoyl-β-alanine amidohydrolase (Rhizobium radiobacter MDC 8606)
Experiment: SEC; Superdex S200 16/60, 50 mM Tris-HCl pH 8.0, 150 mM NaCl; calibrated column; single major peak at 74.4 mL, apparent molecular weight 90 kDa

Rhizobium radiobacter MDC 8606 N-carbamoyl-β-alanine amidohydrolase (enzyme)
stoichiometry N: 2
